In patent US20180186873A1 (CEPHALON, published 2018):
Read-outs that look alike come from different tables or passages of the source.

How the values were obtained:
[1] = molecular target: T1, recombinant human IL-5 (human, UniProt P05113 20-134); assay: cell-based or functional assay
[2] = molecular target: cynomolgus monkey IL-5 (cynomolgus monkey); assay: cell-based or functional assay
[3] = molecular target: T1, recombinant human IL-5; assay: SPR
[4] = molecular target: T1, recombinant human IL-5; assay: SPR; remark: listed apart in the source
[5] = molecular target: T2, recombinant human IL-5 (human, UniProt P05113 20-134); assay: SPR Biacore, purified Ab on Protein A chip, IL-5 analyte, run 2.2
[6] = molecular target: T2, recombinant human IL-5; assay: SPR Biacore, purified Ab on Protein A chip, IL-5 analyte, run 3.1
[7] = molecular target: T2, recombinant human IL-5
[8] = molecular target: T2, recombinant human IL-5; remark: listed apart in the source
[9] = molecular target: T2, recombinant human IL-5; remark: listed apart in the source
[10] = molecular target: T2, recombinant human IL-5; remark: listed apart in the source
[11] = molecular target: T2, recombinant human IL-5; remark: listed apart in the source
[12] = molecular target: T2, recombinant human IL-5; remark: listed apart in the source
[13] = molecular target: T2, recombinant human IL-5; remark: listed apart in the source
[14] = molecular target: T2, recombinant human IL-5; remark: listed apart in the source
[15] = molecular target: T2, recombinant human IL-5; remark: listed apart in the source
[16] = molecular target: T2, recombinant human IL-5; remark: listed apart in the source
[17] = molecular target: T3, recombinant human IL-5 (human, UniProt P05113 20-134); assay: Biacore SPR, purified Ab captured on Protein A, IL-5 injected, run 1.2
[18] = molecular target: T3, recombinant human IL-5; assay: Biacore SPR, purified Ab captured on Protein A, IL-5 injected, run 2.1
[19] = molecular target: T3, recombinant human IL-5; remark: listed apart in the source
[20] = molecular target: T3, recombinant human IL-5; remark: listed apart in the source
[21] = molecular target: T3, recombinant human IL-5; remark: listed apart in the source
[22] = molecular target: T3, recombinant human IL-5; remark: listed apart in the source
[23] = molecular target: T3, recombinant human IL-5; remark: listed apart in the source
[24] = molecular target: T3, recombinant human IL-5; remark: listed apart in the source
[25] = molecular target: T3, recombinant human IL-5; remark: listed apart in the source
[26] = molecular target: T3, recombinant human IL-5; remark: listed apart in the source

B1: 3A5.046 (antibody, human IgG4 S228P, lambda)
heavy: QVQLQESGPGLVKPSQTLSLTCTVSGGSISNGGYYWSWIRQHPGKGLEWIGYIYYSGSTYYNPSLKSRVTISVDTSKNQFSLKLSSVTAADTAVYYCASLGNWFDYWGQGTLVTVSSASTKGPSVFPLAPCSRSTSESTAALGCLVKDYFPEPVTVSWNSGALTSGVHTFPAVLQSSGLYSLSSVVTVPSSSLGTKTYTCNVDHKPSNTKVDKRVESKYGPPCPPCPAPEFLGGPSVFLFPPKPKDTLYITREPEVTCVVVDVSQEDPEVQFNWYVDGVEVHNAKTKPREEQFNSTYRVVSVLTVLHQDWLNGKEYKCKVSNKGLPSSIEKTISKAKGQPREPQVYTLPPSQEEMTKNQVSLTCLVKGFYPSDIAVEWESNGQPENNYKTTPPVLDSDGSFFLYSRLTVDKSRWQEGNVFSCSVMHEALHNHYTQKSLSLSLG
light: SYVLTQPPSVSVAPGQTARITCGGNNIGSKNVYWYQQKPGQAPVLVVHDDSDRPSGIPERFSGSNSGNTATLTISRVEVGDEADYSCQVWDSSSDHVVFGGGTKLTVLGQPKAAPSVTLFPPSSEELQANKATLVCLISDFYPGAVTVAWKADSSPVKAGVETTTPSKQSNNKYAASSYLSLTPEQWKSHRSYSCQVTHEGSTVEKTVAPTECS
- IC50, inhibition of IL-5 driven proliferation of TF-1.6G4 cells (Mean, pM) [1]: 13.8 pM
- IC50, inhibition of IL-5 driven proliferation of TF-1.6G4 cells (Mean, pM) [2]: 43.8 pM
- Kd [3]: 0.0194 nM
- koff [3]: 1.58e-05 s⁻¹
- kon [3]: 816000 M⁻¹ s⁻¹
- Kd [4]: 0.0217 nM
- koff [4]: 1.84e-05 s⁻¹
- kon [4]: 849000 M⁻¹ s⁻¹

B2: 3A5.040 (antibody, human IgG4 S228P, lambda)
heavy: not shown
light: SYVLTQPPSVSVAPGQTARITCGGNNIGSKNVYWYQQKPGQAPVLVVHDDSDRPSGIPERFSGSNSGNTATLTISRVEVGDEADYSCQVWDSSSDHVVFGGGTKLTVLGQPKAAPSVTLFPPSSEELQANKATLVCLISDFYPGAVTVAWKADSSPVKAGVETTTPSKQSNNKYAASSYLSLTPEQWKSHRSYSCQVTHEGSTVEKTVAPTECS
- Kd [5]: 0.133 nM
- koff [5]: 0.000106 s⁻¹
- kon [5]: 793000 M⁻¹ s⁻¹
- Kd [6]: 0.174 nM
- koff [6]: 0.00014 s⁻¹
- kon [6]: 807000 M⁻¹ s⁻¹
- Kd [7]: 0.135 nM
- koff [7]: 0.000105 s⁻¹
- kon [7]: 777000 M⁻¹ s⁻¹
- Kd [8]: 0.138 nM
- koff [8]: 0.000109 s⁻¹
- kon [8]: 789000 M⁻¹ s⁻¹
- Kd [9]: 0.177 nM
- koff [9]: 0.000137 s⁻¹
- kon [9]: 772000 M⁻¹ s⁻¹
- Kd [10]: 0.171 nM
- koff [10]: 0.000132 s⁻¹
- kon [10]: 772000 M⁻¹ s⁻¹
- Kd [11]: 0.148 nM
- koff [11]: 0.000115 s⁻¹
- kon [11]: 776000 M⁻¹ s⁻¹
- Kd [12]: 0.134 nM
- koff [12]: 0.000103 s⁻¹
- kon [12]: 773000 M⁻¹ s⁻¹
- Kd [13]: 0.149 nM
- koff [13]: 0.000114 s⁻¹
- kon [13]: 769000 M⁻¹ s⁻¹
- Kd [14]: 0.153 nM
- koff [14]: 0.00012 s⁻¹
- kon [14]: 784000 M⁻¹ s⁻¹
- Kd [15]: 0.15 nM
- koff [15]: 0.000117 s⁻¹
- kon [15]: 779000 M⁻¹ s⁻¹
- Kd [16]: 0.151 nM
- koff [16]: 0.000117 s⁻¹
- kon [16]: 775000 M⁻¹ s⁻¹

B3: 3A5.040 (antibody, human IgG4 S228P, lambda)
heavy: not shown
light: SYVLTQPPSVSVAPGQTARITCGGNNIGSKNVYWYQQKPGQAPVLVVHDDSDRPSGIPERFSGSNSGNTATLTISRVEVGDEADYSCQVWDSSSDHVVFGGGTKLTVLGQPKAAPSVTLFPPSSEELQANKATLVCLISDFYPGAVTVAWKADSSPVKAGVETTTPSKQSNNKYAASSYLSLTPEQWKSHRSYSCQVTHEGSTVEKTVAPTECS
- Kd [17]: 0.151 nM
- koff [17]: 0.000111 s⁻¹
- kon [17]: 735000 M⁻¹ s⁻¹
- Kd [18]: 0.142 nM
- koff [18]: 0.000105 s⁻¹
- kon [18]: 737000 M⁻¹ s⁻¹
- Kd [19]: 0.18 nM
- koff [19]: 0.000133 s⁻¹
- kon [19]: 740000 M⁻¹ s⁻¹
- Kd [20]: 0.115 nM
- koff [20]: 8.22e-05 s⁻¹
- kon [20]: 714000 M⁻¹ s⁻¹
- Kd [21]: 0.139 nM
- koff [21]: 0.000101 s⁻¹
- kon [21]: 728000 M⁻¹ s⁻¹
- Kd [22]: 0.15 nM
- koff [22]: 0.00011 s⁻¹
- kon [22]: 732000 M⁻¹ s⁻¹
- Kd [23]: 0.129 nM
- koff [23]: 9.36e-05 s⁻¹
- kon [23]: 727000 M⁻¹ s⁻¹
- Kd [24]: 0.163 nM
- koff [24]: 0.000116 s⁻¹
- kon [24]: 713000 M⁻¹ s⁻¹
- Kd [25]: 0.143 nM
- koff [25]: 0.000104 s⁻¹
- kon [25]: 728000 M⁻¹ s⁻¹
- Kd [26]: 0.163 nM
- koff [26]: 0.000116 s⁻¹
- kon [26]: 713000 M⁻¹ s⁻¹
